From PMC11401910 (2024)

Experiments:
SurA-core = SurA-core (E. coli, UniProt P0ABZ6 21-428, deleting codons for residues 172–389); assay: MST; apparent Kd, Hill fit, 0.8 M urea
SurA-WT [1] = target: T1, SurA-WT (E. coli, UniProt P0ABZ6 21-428); assay: MST; apparent Kd, Hill fit, 0.8 M urea
T1 chain: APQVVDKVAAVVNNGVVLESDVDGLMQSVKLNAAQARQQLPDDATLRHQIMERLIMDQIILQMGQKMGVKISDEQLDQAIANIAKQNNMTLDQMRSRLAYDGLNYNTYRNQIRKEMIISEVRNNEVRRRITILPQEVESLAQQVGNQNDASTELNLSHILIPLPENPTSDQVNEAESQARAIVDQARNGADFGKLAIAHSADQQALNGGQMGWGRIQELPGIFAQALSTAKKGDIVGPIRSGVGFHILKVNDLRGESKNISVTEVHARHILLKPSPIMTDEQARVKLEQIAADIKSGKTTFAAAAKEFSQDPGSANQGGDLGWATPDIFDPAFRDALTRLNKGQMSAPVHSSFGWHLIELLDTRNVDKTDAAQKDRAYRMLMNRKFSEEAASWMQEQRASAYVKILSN

OmpF = target: T2, OmpF (Escherichia coli, UniProt P02931)
T2 chain: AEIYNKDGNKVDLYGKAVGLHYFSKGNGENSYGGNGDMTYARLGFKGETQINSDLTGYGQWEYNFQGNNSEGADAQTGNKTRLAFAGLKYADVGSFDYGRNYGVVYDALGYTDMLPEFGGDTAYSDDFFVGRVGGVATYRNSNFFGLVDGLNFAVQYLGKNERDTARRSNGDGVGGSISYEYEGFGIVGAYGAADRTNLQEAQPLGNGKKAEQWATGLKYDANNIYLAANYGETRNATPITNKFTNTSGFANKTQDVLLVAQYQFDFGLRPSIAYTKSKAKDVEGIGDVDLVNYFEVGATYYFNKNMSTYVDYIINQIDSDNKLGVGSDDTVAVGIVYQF

[2] = target: T3, tOmpA transmembrane domain (Escherichia coli, UniProt P0A910)
T3 chain: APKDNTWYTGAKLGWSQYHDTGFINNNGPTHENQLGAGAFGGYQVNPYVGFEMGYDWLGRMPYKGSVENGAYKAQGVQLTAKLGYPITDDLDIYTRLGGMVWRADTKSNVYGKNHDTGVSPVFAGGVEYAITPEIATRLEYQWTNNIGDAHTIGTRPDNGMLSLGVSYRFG

SurA-WT [3] = target: T1, SurA-WT; assay: ITC

B1: Cys-OmpX labelled with Alexa Fluor 488 (natural protein)
chain: MGSCATSTVTGGYAQSDAQGQMNKMGGFNLKYRYEEDNSPLGVIGSFTYTEKSRTASSGDYNKNQYYGITAGPAYRINDWASIYGVVGVGYGKFQTTEYPTYKHDTSDYGFSYGAGLQFNPMENVALDFSYEQSRIRSVDVGTWIAGVGYRF
modifications: Alexa Fluor 488 on the N-terminal Cys
- Kd (SurA-core): 5.1 µM
- Kd (SurA-WT [1]): 1.3 µM

B2: SurA (protein)
chain: APQVVDKVAAVVNNGVVLESDVDGLMQSVKLNAAQARQQLPDDATLRHQIMERLIMDQIILQMGQKMGVKISDEQLDQAIANIAKQNNMTLDQMRSRLAYDGLNYNTYRNQIRKEMIISEVRNNEVRRRITILPQEVESLAQQVGNQNDASTELNLSHILIPLPENPTSDQVNEAESQARAIVDQARNGADFGKLAIAHSADQQALNGGQMGWGRIQELPGIFAQALSTAKKGDIVGPIRSGVGFHILKVNDLRGESKNISVTEVHARHILLKPSPIMTDEQARVKLEQIAADIKSGKTTFAAAAKEFSQDPGSANQGGDLGWATPDIFDPAFRDALTRLNKGQMSAPVHSSFGWHLIELLDTRNVDKTDAAQKDRAYRMLMNRKFSEEAASWMQEQRASAYVKILSN
- Ki (OmpF): 5.2 µM
- Kd [2]: 3.7 µM

Binder: WEYIPNV [WEYIPNV peptide]
- Kd (SurA-WT [3]): 5.4 µM
